# Test results taken from paper PMC7960994.
# How the values were obtained:
# [1] = molecular target: D474A-PfCpn60 (Plasmodium falciparum mitochondrial chaperonin 60, ATP hydrolysis-deficient mutant) (Plasmodium falciparum (isolate FCR-3/Gambia)); assay: negative stain electron microscopy
# [2] = molecular target: D474A-PfCpn60 (Plasmodium falciparum mitochondrial chaperonin 60, ATP hydrolysis-deficient mutant) (Plasmodium falciparum (isolate FCR-3/Gambia)); assay: crystal structure; D474A-PfCpn60 with bound ATP; crystals from phosphate citrate buffer pH 4.4, 13% isopropanol, lithium sulfate; 3.69 Å; one heptameric ring in the asymmetric unit
substance,measurement,setting,value
"D474A-PfCpn60 (Plasmodium falciparum mitochondrial chaperonin 60, ATP hydrolysis-deficient mutant) (domain or fragment)",stoichiometry N,[1],7
same,stoichiometry N,[2],14
